Results: patent US11542480B2

Legend:
[1] = substrate: NCC(=O)O; experiment: purified protein, by the assay type; format: biochemical, Geobacillus kaustophilus HTA426; details: other: substrate glycine, 37° C., pyrophosphate, pH 8.5, WT-GOX, 60.0 °C
Excerpt: HTA426 is available, for example, from the National Research and Development Agency, RIKEN BioResource Research Center (RIKEN BRC) Microbe Division (JCM) (JCM12893).
However, a plasmid vector of pET-15b was used as a vector, and E. coli BL21 (DE3) was used as a host cell (host).
For convenience of explanation, the wild-type glycine oxidase is abbreviated as “WT-GOX”.

[2] = substrate: NCC(=O)O; experiment: purified protein, by the assay type; format: biochemical, Geobacillus kaustophilus HTA426; details: other: substrate glycine, 37° C., pyrophosphate, pH 8.5, purified V-GOX1, 70.0 °C
Method: For convenience of explanation, the mutant glycine oxidase is abbreviated as “V-GOX” in this example.
The enzyme activity in Table 2 is shown as the ratio (times) of the enzyme reaction rate (use of crude enzyme solution) of V-GOX when WT-GOX is used as reference (1).
Therefore, after purifying this V-GOX1, the molecular weight (SDS-PAGE), the optimum temperature, the optimum pH, thermal stability, pH stability, the specific activity, and the kinetic constant Km were evaluated. The results of the specific activity, thermal stability, and the kinetic constant Km are shown in Table 1 above, the specific activity is shown in FIG. 3A, and thermal stability is shown in FIG. 3B, and further, evaluation results of enzyme properties of V-GOX1 containing them are also shown in Table 3 together with the conditions.

Row | Protein | Km [1] [mM mM] | Km [2] [mM mM]
1 | Geobacillus kaustophilus HTA426 wild-type glycine oxidase (WT-GOX), SEQ ID NO: 1 (Geobacillus kaustophilus HTA426) (protein) MTHRYDVAIVGGGVIGAAIGFELAKRRHRVAIFEKGTMGSGASSAAAGMLGAQSEFSTSSPLVPLALQSRALMPALAEELRERTGIDIGLVEKGLIKLATTEEEADDLYRHYTFWRGIGEPVQWLTKGEALEMEPRLAAEALAGAMYIPGDGQVSAPDLAAALAYAAASAGACLYEYTEVFDIRSDSSGHVLDTTGGTFAAEAVVIASGAWAARLGARVGLSLSVYPVKGECVMVRAPVPLLQTTVFAKNGCYIVPKSGNRLLIGATSTPGTFDRRVSAGGVMNLLHRAAHLVPDIEQAEWVASWSGIRPQTEDGLPYLGEHPERRGLFVAAGHYRNGILLSPLTGLLVADLVERKETAFDLAPFSLTRHIGKVGVE | 0.25 | –
2 | Geobacillus kaustophilus HTA426 glycine oxidase variant V-GOX1, 251st glycine of SEQ ID NO: 1 substituted with glutamine (Gly251Gln; SEQ ID NO: 3 with Xaa251 = … (protein) MTHRYDVAIVGGGVIGAAIGFELAKRRHRVAIFEKGTMGSGASSAAAGMLGAQSEFSTSSPLVPLALQSRALMPALAEELRERTGIDIGLVEKGLIKLATTEEEADDLYRHYTFWRGIGEPVQWLTKGEALEMEPRLAAEALAGAMYIPGDGQVSAPDLAAALAYAAASAGACLYEYTEVFDIRSDSSGHVLDTTGGTFAAEAVVIASGAWAARLGARVGLSLSVYPVKGECVMVRAPVPLLQTTVFAKNQCYIVPKSGNRLLIGATSTPGTFDRRVSAGGVMNLLHRAAHLVPDIEQAEWVASWSGIRPQTEDGLPYLGEHPERRGLFVAAGHYRNGILLSPLTGLLVADLVERKETAFDLAPFSLTRHIGKVGVE | – | 0.20
